Test results taken from the nanobody polyreactivity screen of Harvey et al. (2022).

Assay: yeast display, Sf9 membrane polyspecificity reagent, FACS + sequencing; frameworks hold sequencing errors
Outline: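 Sorting gates, low and high (top ~1%), were placed on anti-HA fluorescence to track expression and on streptavidin fluorescence to track reagent binding. A clone's polyreactivity label is taken from the gate it came out of. The reagent was 10% biotinylated, detergent-solubilized Sf9 membrane, applied for 1 hour at 4 °C to galactose-induced yeast display cells.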

Sequence | polyreactivity (PSR sort gate)
HVPLVESGGGLVQAGGSLRLSCAASGSTFSVNVLGWYRLAAGKERELVAAITQAGGSTYYADSVKGRFSISRDTAKNTVYLQMNSLKPEDTAGYYCAVEKWSVYSFFLEGADYWGQGTQLTVSS | low polyreactivity
HVQIVESGGGLVQAGGRLRLSCAASGSTFHDYAMGWYRQATGQERELVAAISNSGGSTYYADSVKARFTISRDNAKNTVYLQMKSQKPEYTAVYYCAADGRWYWDYEYWGQGTQVTVSS | low polyreactivity
HVQLEDSGGGLVQAGGRLRITCAASGRSSETNDMGWYRQAPGKERELVAAISSSGGSTYYADSVKGRFTISRDNAKNTVYLQMNSLQPEDTAVYYCYAVYYRTVLKIGVYEYDYWGQGTQVTVSS | low polyreactivity
HVQLEETGRGLVQAGGSLRISCAASGRIFEYYAMGWYRQAPGKDRELVAAITSSTGSTSYADSVKGRFTISRDNEKNTVYLQMNSLKPEDTAVYYCAADVWFFSKLSRYDYWGQGTQVTVSS | low polyreactivity
HVQLGESGGGLVQAGGSLRLSCAASGFIFTAYVMGWYRQAPGKERELVAAISRSGGSTYYADSVKGRFTISRDNAKHTVYLQMNSLKPEDTAVYYCAKLRRDARYDYWGQGTQVTVSS | high polyreactivity
HVQLQEIGGGLVQAGDSQRLSCAASGNIFRFTDMGRYRQAPGKERELVAAINAGSTTYYAASVKGRFTISRDNAKNTVYLQMNSLKPEDTAVYYCNALYSYKYGRKYDYWGQGTQVTVSS | high polyreactivity
HVQLQESAGGLVQAGGSLRLSCAASGTISSREAMGWYSQAPGKERDFVATIASGTTTYYADSVKGSFTISRDNAENTVYLQTNTLKPEDTAVYYCAAPTIQIYPFYYWGHGTQVTVSS | high polyreactivity
HVQLQESGGGLLQAGGSLRLSCAASGSIFQATYMGWYRQATGKEREFVASITYGSITNYADSVKGRFTIGRDNAKDTLYLQMNSLKPEFTAVYYCAVARHYIPAFHYWGQGTQVTVSS | low polyreactivity
HVQLQESGGGLVQAGGSLRLSCAASGSIFQATYMGWYRPAPGKEREFVASITYGSITNYADSVKGRFTIGRDNAKDTLYLQMNSLKPEDTAVYYCAAVGRRRTTVGRYVRMDYWGQGTQVTVSS | low polyreactivity
HVQLVESGGGLVQAAGSLRLSCAASGRIFSAYAMGWYRQAPGKEREFVAAITQSGGSTYYAESVKGRFTISRDNAKNTVYLQMNSLKPEDTAVYYCAAGDAYYTEALPFGEYDYWGQGTQVTVSS | low polyreactivity
HVQLVESGGGLVQAGGRLRLSCAASASIFDSNAMGWYRQAPGKERELVADIRGIGGSTYYADSVKGRFTISRDNAKNTVYLQMNSLKPEDTAVYYCNTSTLGGYYWGQGTQVTVSS | low polyreactivity
HVQLVESGGGLVQAGGSLRISCAASGITFYAYAMGWYRQAPGKERELVAAITRRGGSTRYADSVKGRFTITRDNAKNTVYLQMNSLKPEDTAVYYCNARSGRYFLGYGYWGQGTQVTVSS | high polyreactivity
HVQLVESGGGLVQAGGSLRLSCAASGFIFRYYAMGWYRQAPGKERELVAAISWSGTPTFYADSVKGRFTISRDNAKNTVYLQMNSLKPEDTAVYYCAAETTGYDSYIQYEYWGQGTQVTVSS | high polyreactivity
HVQLVESGGGLVQAGGSLRLSCAASGFTFGYYAMGWYRQAPGKERELVAAISSSGGSTYYADSVKGRFTISRDNAKNTVYLQMNSLKPEDTAVYFCAVVVFSRVYRYFTSDYWGQGTQVTVSS | high polyreactivity
HVQLVESGGGLVQAGGSLRLSCAASGIIFGAYALGWYRQAPGKERELVAAITYSSGSTYYADSVKGRFTISRDNAKNTVYLQMNSLKPEDTAVYYCAKTNFSQSSRYNYDYWGQGTQVTVSS | low polyreactivity
HVQLVESGGGLVQAGGSLRLSCAASGRIFGYNAMGWYRQAPGKEREFVATITYNDGSTYYADSVKGRFTMSRDNAKNTVYLQMNSLKPEDTAVYYCAADLIWTVYGWKYDYWGQGTHVTVSS | low polyreactivity
HVQLVESGGGLVQAGGSLRLSCAASGRIFRINVMGWCRQAPGKERELVAAISGRGGSTYYADSVKGRFTISRDNAQNTDYLQMNRLKPEDTAVYYFAARSPYRYYYWGQGTQVTVSS | high polyreactivity
HVQLVESGGGLVQAGGSLRLSCAASGRILSRNAMGRYRPAPGKERELVAAISISGGSTYYADSVKGRFTISRDNAKNTVYLQRNSLKPEDTAVYYCNTAYYGYRKYDYWGQGTQVTVSS | high polyreactivity
HVQLVESGGGLVQAGGSLRLSCAASGRTFLGNAMGWYRQAPGKERQLVAVITGSGARTYYADSEKGRFTISRDNAKNTVYLQMNSLKPEDTAVYYCAAAGFSGQYRSYYWGQGTQVTVSS | high polyreactivity
HVQLVESGGGLVQAGGSLRLSCAASGSIFSENTMGWYRQAPGKEWELVAAISWSGGSTNYADSVKGRFTISRDNAKNTVYLQMNSLKPEDTAVYYCAKDVGSADPTYYYWGQGTQVTVSS | low polyreactivity
HVQLVESGGGLVQAGGSLRLSCAASGSTFFKYGMGWNRQAPGKERELVASITSRTGSTYYADSVKGRFTISRDNAKNTVYLQMKSLKPEDTAVYYCNVRRGGGYRYGARTFIYGHWGEGTQVTVSS | high polyreactivity
HVQLVESGGGLVQAGGSLRLSCAASGSTFGQYTMGWYRQAPGKERELVATISSGGSTYYADSVKGRFTISRDNAKHTVYLQMNSLKPEDTAVYYCAARYWSIYDYWGQGTQVTVSS | low polyreactivity

Sequence | polyreactivity (PSR sort gate)
HVQLVESGGGLVQAGGSLRLSCAASGSTFNINAMVWYRQAPGKERELFAAISWSGDITYYADSVKGRFTISRDNAKNTVYLLMISLKPEDTAVYYCNTDDPGNYWYAEYDYWGQGTQVTVSS | low polyreactivity
HVQLVESGGGLVQAGGSLRLSCAASGSTFNRYAMGWYRQAPGKERELVAAITERGGSTYYADSVKGRFTISRDNAKNTVYLQMNRLIPEDTAVYYCAARSKYYRSTPFVSDYWGQGTQVTVSS | high polyreactivity
HVQLVESGGGLVQAGGSLRLSCAASGSTFSRYAMGWYRQAPGKERELVAAISSSGGSTYYADSVKGRFTISRDNAKNTVYLQMNSLKPEDTAVYYCAARQYFFSSWRFDYWGQGTQVTVSS | high polyreactivity
HVQLVESGGGLVQAGGSLRLSCAASGSTLWYNAMGWNRQAPGKERELVAVITWTGGSTYYADSVKGRFTISRDNAKNTVYLQMNSLKPEDTAVYYCAVRWYFGNRYKYYYWGQGTQVTVSS | high polyreactivity
HVQLVESGGGLVQAGGSLRLSCAAWSIFYLNAMGWYRQAPGKERELVAAISSAGSTYYADSVKGRFTISRDNAKNTVYLQMNSLKPEDTAVYYCAAYWYDSPGVTEIWYDYWGQGTQVTVSS | low polyreactivity
HVQLVESGGGLVQAGGSLRVSCAASGSTFTRNAMGWYRQAPGKERELVAAITLRGGRTYYADSVKGRFTISRDNAKNTVYLQMNSLKPEDTAVYYCAAKPYTAYSYYEQRGRKYDYWGQGTQVTVSS | low polyreactivity
HVQLVESGGGLVQAGVSLRLSCAASGRLLEGYAMGWYRQAPGKERELVAAISFSTTTTYYADSVKGRFTISRDNAKNTVYLQMNSLKPEDTAVYYCAADSQQSDYDYWGQGTQVTVSS | high polyreactivity
HVQLVESGGGVVQAGGSLRLSCAASGIIFYYYTMGWYRHAPGKQRELVAAISTSGGRTYYADSVKGRFTISRDTAKNTVYLQMNSLKPEDTAVYYCNARSRHTTLDYWGQGTQVTVSS | high polyreactivity
HVQRVDSGAGLVQPRCSLRISCAASGNTFKQYAMGWYRQAPGKDRELVAAIRRSGSTYYADSVKGRFTISRDNAKYTVYLEMNSLKPEDPAVYYCNARIYRLYSTYSWTRYDYWGQGTQVTVSS | high polyreactivity
HVQRVESGGGLVQAGGSLRLSCAASGLIFVRYAMGWYRQAPGKERELVAAITTGGRTYYADSVKGRFTISRDNAKNTVYLQMNSLKPEDTAVYDCAASRSTYRASRPGTTFNYWGQGTQVTVSS | high polyreactivity
HVQVVESGGGLVQAGGSLRLSCAASGSTFPANAMGWYRQAPGKERELVAAISSSGGRTYYADSVKGRFTISRDNAQKTVYLQMNSLKPEDTAVYYCAAYGGGGYKYDYWGQGTQVSVSS | low polyreactivity
HVRLQESVGGLVQAGGSLRQSCAASGAISPYYDMGWYRLAPGKEREFVASIAHGGTTYYADSVKGRFTTSRDNAKNTVYLQMNSLKPEDTAVYYCAVAYDVWHSHIYRGQGTQVTVSS | high polyreactivity
IIQAGGSLRLSCAASGRTLSGYAMGWYRQAPGKERELIADITSGGSTYYADSVKGRFTISRDNAKNTVYLQMNSLKPEDTAVYYCAAERQIRSFWSSRTYEFGYWGQGTQVTVSS | low polyreactivity
KDQLVESGGGLVQAGGSLRLSCAASGLTFGGNAMGWYRQAPGKERELVAGISSSGNTNDADSVKGRFTISRDNAKNTVYLQLNSLKPEDTAVYYCAADENITYPVYDLYYWGQGTQVTVSS | low polyreactivity
KDQLVESGVGLVQAGCSLRLSCAASGRTLRRNAMGWYRQAPRKERELVAAISTGGGSTYYADSVKGRFTISRDNAKNTVYLQMNSLKPVDTAVYYCAAVYSQSTKRYELYYWGQGTQVTVSS | high polyreactivity
KFQLVESGGGLVQAGGRLRLSCAASGSTFWDYAMGWYRQATGKERQLVAVITSSGGGTYYADSVKGRFTISRDNSKNTVYLLMNSLKPEDTAVYYCAKKRPYSNGGYYWGQGSQVTVSS | high polyreactivity
KGHLEESGGGLVQAGGRLRLSCPASGNTFGDYAMGRYRQAPGKERELVAAISRSGGSTSYADSVKGRFTISRDNAKNTFYLQMNSLKPVDTAVYYCAAYWQRFGYDYWGQGTQVTVSS | low polyreactivity
KGQHVESGGGLVQAGGRLRLSCAASGSIFRYNAMGWDRQAPGKEREFVAAISWSGGRTFYADSVKGRFTISRDNAKNTVYLQMNSLKPEDTAVYYCAARSSRTTRQGYDYWGHGTQVTVSS | high polyreactivity
KSGGGLVQAGGSLRLSCAASGRIYVEYAMAWYKQAPGKERELVASISWSGDSTYYAESVKGRFTISRDNAKNTVYSQKKSLKPEATAVYYCNADGQVGYAVSYDYWGQGTQVTVSS | low polyreactivity
KVKLVESGGGLVQAGGSLRLSCAASGITSWYYAMGWYRQAPGKERELVAAITSDGSTYYADSVKGRFTISRDNAKNTVYLQMNSLKPEVTAVYYCAAERDYWIPDSYLVGMDFWGLGTQVTVSS | low polyreactivity
KVQLQESGGGLVQAGGSLRLSCAASCTISQEDWMGWYRQAPGKEREFVAAIGLGSNTNYADSLKGRFPISRDNAKNTVYLQMNSLKPEDTAVYYCAVSVWQYSDHVYRGQGTQVTVSS | low polyreactivity
